Results published in article PMC2172684 (The Journal of Cell Biology, 2003).
Where two headings read alike, the source gives them in different places.

B1: GST-tagged Nup153 (895–1475) (domain or fragment, UniProt P49790 895-1475, looked up)
chain: SNSAASSSFKFGVSSSSSGPSQTLTSTGNFKFGDQGGFKIGVSSDSGSINPMSEGFKFSKPIGDFKFGVSSESKPEEVKKDSKNDNFKFGLSSGLSNPVSLTPFQFGVSNLGQEEKKEELPKSSSAGFSFGTGVINSTPAPANTIVTSENKSSFNLGTIETKSASVAPFTCKTSEAKKEEMPATKGGFSFGNVEPASLPSASVFVLGRTEEKQQEPVTSTSLVFGKKADNEEPKCQPVFSFGNSEQTKDENSSKSTFSFSMTKPSEKESEQPAKATFAFGAQTSTTADQGAAKPVFSFLNNSSSSSSTPATSAGGGIFGSSTSSSNPPVATFVFGQSSNPVSSSAFGNTAESSTSQSLLFSQDSKLATTSSTGTAVTPFVFGPGASSNNTTTSGFGFGATTTSSSAGSSFVFGTGPSAPSASPAFGANQTPTFGQSQGASQPNPPGFGSISSSTALFPTGSQPAPPTFGTVSSSSQPPVFGQQPSQSAFGSGTTPNSSSAFQFGSSTTNFNFTNNSPSGVFTFGANSSTPAASAQPSGSGGFPFNQSPAAFTVGSNGKNVFSSSGTSFSGRKIKTAVRRRK

Tests used:
Experiment in all cases: ELISA
importin β F217A = importin β F217A (human, UniProt Q14974 1-876, F217A)
[1] = target: T1, importin β I178A/F217A/Y255A/I263R (m-N) (human, UniProt Q14974 1-876, I178A | F217A | Y255A | I263R)
importin β I178A/E214A = importin β I178A/E214A (human, UniProt Q14974 1-876, I178A | E214A)
importin β I178D/Y255A = importin β I178D/Y255A (human, UniProt Q14974 1-876, I178D | Y255A)
importin β I178A = importin β I178A (human, UniProt Q14974 1-876, I178A)
importin β Y255A = importin β Y255A (human, UniProt Q14974 1-876, Y255A)
importin β I178D = importin β I178D (human, UniProt Q14974 1-876, I178D)
importin β E214A = importin β E214A (human, UniProt Q14974 1-876, E214A)
importin β I263R = importin β I263R (human, UniProt Q14974 1-876, I263R)
wild-type importin β [2] = target: T2, wild-type importin β (human, UniProt Q14974 1-876)
importin β F217A/Y255A = importin β F217A/Y255A (human, UniProt Q14974 1-876, F217A | Y255A)
[3] = target: T1, importin β I178A/F217A/Y255A/I263R (m-N); remark: listed apart in the source
[4] = target: importin β L612D/F688A (m-C) (human, UniProt Q14974 1-876, L612D | F688A)
wild-type importin β [5] = target: T2, wild-type importin β; remark: listed apart in the source
GST–RanGTP = GST–RanGTP (UniProt P62826 1-216)
[6] = target: B1

Work on B1 yielded a Kd (importin β F217A) of 2.1 ± 0.2 nM, a Kd [1] of 99 ± 15.2 nM and a Kd (importin β I178A/E214A) of 27 ± 4.1 nM. For the same binder, the Kd (importin β I178D/Y255A) was 68.3 ± 9 nM, the Kd (importin β I178A) was 1.1 ± 0.1 nM and the Kd (importin β Y255A) was 3.5 ± 0.3 nM. It also gave a Kd (importin β I178D) of 40.1 ± 9.1 nM, a Kd (importin β E214A) of 1.8 ± 0.1 nM and a Kd (importin β I263R) of 2.5 ± 0.3 nM. It also gave a Kd (wild-type importin β [2]) of 1.1 ± 0.1 nM, a Kd (importin β F217A/Y255A) of 32.4 ± 5.3 nM and a Kd [3] of 91.3 ± 11.8 nM. The Kd [4] was 1.2 ± 0.1 nM and the Kd (wild-type importin β [5]) was 1 ± 0.1 nM.

B2: importin β m-N/m-C (natural protein)
chain: MELITILEKTVSPDRLELEAAQKFLERAAVENLPTFLVELSRVLANPGNSQVARVAAGLQIKNSLTSKDPDIKAQYQQRWLAIDANARREVKNYVLQTLGTETYRPSSASQCVAGIACAEIPVNQWPELIPQLVANVTNPNSTEHMKESTLEAIGYICQDIDPEQLQDKSNEILTAIAQGMRKEEPSNNVKLAATNALLNSLEFTKANFDKESERHAIMQVVCEATQCPDTRVRVAALQNLVKIMSLYYQYMETAMGPALFARTIEAMKSDIDEVALQGIEFWSNVCDEEMDLAIEASEAAEQGRPPEHTSKFYAKGALQYLVPILTQTLTKQDENDDDDDWNPCKAAGVCLMLLATCCEDDIVPHVLPFIKEHIKNPDWRYRDAAVMAFGCILEGPEPSQLKPLVIQAMPTLIELMKDPSVVVRDTAAWTVGRICELLPEAAINDVYLAPLLQCLIEGLSAEPRVASNVCWAFSSLAEAAYEAADVADDQEEPATYCLSSSFELIVQKLLETTDRPDGHQNNLRSSAYESLMEIVKNSAKDCYPAVQKTTLVIMERLQQVLQMESHIQSTSDRIQFNDLQSLLCATLQNVLRKVQHQDALQISDVVMASLDRMFQSTAGSGGVQEDALMAVSTLVEVLGGEFLKYMEAFKPFLGIGLKNYAEYQVCLAAVGLVGDLCRALQSNIIPACDEVMQLLLENLGNENVHRSVKPQILSVFGDIALAIGGEFKKYLEVVLNTLQQASQAQVDKSDYDMVDYLNELRESCLEAYTGIVQGLKGDQENVHPDVMLVQPRVEFILSFIDHIAGDEDHTDGVVACAAGLIGDLCTAFGKDVLKLVEARPMIHELLTEGRRSKTNKAKTLATWATKELRKLKNQA
B2 showed a Kd (GST–RanGTP) of 4.4 nM.

B3: importin β (304–876) F688A (domain or fragment, human, UniProt Q14974 304-876, looked up)
chain: GRPPEHTSKFYAKGALQYLVPILTQTLTKQDENDDDDDWNPCKAAGVCLMLLATCCEDDIVPHVLPFIKEHIKNPDWRYRDAAVMAFGCILEGPEPSQLKPLVIQAMPTLIELMKDPSVVVRDTAAWTVGRICELLPEAAINDVYLAPLLQCLIEGLSAEPRVASNVCWAFSSLAEAAYEAADVADDQEEPATYCLSSSFELIVQKLLETTDRPDGHQNNLRSSAYESLMEIVKNSAKDCYPAVQKTTLVIMERLQQVLQMESHIQSTSDRIQFNDLQSLLCATLQNVLRKVQHQDALQISDVVMASLLRMFQSTAGSGGVQEDALMAVSTLVEVLGGEFLKYMEAFKPFLGIGLKNYAEYQVCLAAVGLVGDLCRALQSNIIPACDEVMQLLLENLGNENVHRSVKPQILSVFGDIALAIGGEFKKYLEVVLNTLQQASQAQVDKSDYDMVDYLNELRESCLEAYTGIVQGLKGDQENVHPDVMLVQPRVEFILSFIDHIAGDEDHTDGVVACAAGLIGDLCTAFGKDVLKLVEARPMIHELLTEGRRSKTNKAKTLATWATKELRKLKNQA
B3 was tested, and the “fold decrease in affinity against importin β (304–876)” value [6] was roughly 2 fold.
